Data published in article PMC11283454 (Nature Communications, 2024).

Biological target: the molecule itself
Assay: MST

B1: human ATE1 isoform 2 (arginyl-tRNA-protein transferase 1), recombinant (enzyme, UniProt O95260-2 1-518, looked up)
chain: MAFWAGGSPSVVDYFPSEDFYRCGYCKNESGSRSNGMWAHSMTVQDYQDLIDRGWRRSGKYVYKPVMNQTCCPQYTIRCRPLQFQPSKSHKKVLKKMLKFLAKGEVPKGSCEDEPMDSTMDDAVAGDFALINKLDIQCDLKTLSDDIKESLESEGKNSKKEEPQELLQSQDFVGEKLGSGEPSHSVKVHTVPKPGKGADLSKPPCRKAKEIRKERKRLKLMQQNPAGELEGFQAQGHPPSLFPPKAKSNQPKSLEDLIFESLPENASHKLEVRLVPVSFEDPEFKSSFSQSFSLYVKYQVAIHQDPPDECGKTEFTRFLCSSPLEAETPPNGPDCGYGSFHQQYWLDGKIIAVGVIDILPNCVSSVYLYYDPDYSFLSLGVYSALREIAFTRQLHEKTSQLSYYYMGFYIHSCPKMKYKGQYRPSDLLCPETYVWVPIEQCLPSLENSKYCRFNQDPEAVDEDRSTEPDRLQVFHKRAIMPYGVYKKQQKDPSEEAAVLQYASLVGQKCSERMLLFRN
modifications: red Tris-NTA dye on the labelled copy in MST
Q: B1 was tested. Which Kd did it give?
A: The Kd was 8.5 µM.
